# Substitutions are numbered along the chain they refer to. Names may count otherwise.
# B1: TACE prodomain (TPD), wild type, Asp23-Arg214 (domain or fragment, human, UniProt P78536 23-214, looked up)
# chain: DPGFGPHQRLEKLDSLLSDYDILSLSNIQQHSVRKRDLQTSTHVETLLTFSALKRHFKLYLTSSTERFSQNFKVVVVDGKNESEYTVKWQDFFTGHVVGEPDSRVLAHIRDDDVIIRINTDGAEYNIEPLWRFVNDTKDKRMLVYKSEDIKNVSRLQSPKVCGYLKVDNEELLPKGLVDREPPEELVHRVKR
# notes: prodomain of human ADAM17/TACE, residues Asp23-Arg214; The methods say Asp24-Arg214, but the DNA fits Asp23; The WT runs as a disulfide-linked dimer without reducing agent; also called WT TPD; TPD WT; source: E. coli BL21 (DE3), pET28, soluble fraction, purified (Ni column, HiTrap Q, Superdex 75)
# B2: TACE prodomain (TPD) C184A (domain or fragment, human, UniProt P78536 23-214, looked up)
# chain: B1 chain with C162A
# Assays:
# [1] = biological target: the molecule itself; assay: SDS-PAGE under non-reducing conditions; purified TPD; 40 kDa band = covalent (disulfide-linked) dimer, 20 kDa band = monomer
# [2] = biological target: recombinant TACE catalytic domain; assay: cell-based or functional assay
# Chain of recombinant TACE catalytic domain (P78536 215-671): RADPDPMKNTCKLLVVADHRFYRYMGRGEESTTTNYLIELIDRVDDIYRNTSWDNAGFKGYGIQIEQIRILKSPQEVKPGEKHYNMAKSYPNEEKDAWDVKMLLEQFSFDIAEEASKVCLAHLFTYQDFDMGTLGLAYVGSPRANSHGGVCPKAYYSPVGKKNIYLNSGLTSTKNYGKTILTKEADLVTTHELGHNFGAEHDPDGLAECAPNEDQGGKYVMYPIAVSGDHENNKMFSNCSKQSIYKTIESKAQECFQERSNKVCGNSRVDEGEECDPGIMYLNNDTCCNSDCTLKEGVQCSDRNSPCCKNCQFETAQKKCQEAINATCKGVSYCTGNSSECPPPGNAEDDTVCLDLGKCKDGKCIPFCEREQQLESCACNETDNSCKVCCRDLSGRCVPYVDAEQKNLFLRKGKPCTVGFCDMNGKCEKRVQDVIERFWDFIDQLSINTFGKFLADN
Binder,stoichiometry N [1],"IC50 of inhibition of the enzyme's hydrolysis of a fluorogenic peptide (10 nM TACE, Mca-PLAQAV-Dpa-RSSSR 10 μM, 37 °C, 30 min pre-incubation with TPD) [2] [µM]","IC50 of inhibition of the enzyme's hydrolysis of a fluorogenic peptide (10 nM TACE, 37 °C) [2] [µM]"
B1,2,0.145,
B2,,,0.033
